One test has as its target T1, TWEAK (human, UniProt O43508 94-249, limits assumed).
T1 construct: The assay paragraph says only 'TWEAK'; also called human TWEAK; TNF-related weak inducer of apoptosis
T1 sequence (looked up): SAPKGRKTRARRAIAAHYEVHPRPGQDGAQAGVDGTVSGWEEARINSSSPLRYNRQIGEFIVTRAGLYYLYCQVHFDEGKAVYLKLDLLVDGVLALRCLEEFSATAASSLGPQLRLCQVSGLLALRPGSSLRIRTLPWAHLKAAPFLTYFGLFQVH
Nature of the test: SPR Biacore T200 25 C, apparent KD, TWEAK amine-coupled on C1 chip, antibody as analyte. (In SPR one partner is held on a chip, and binding of the other changes the refractive index at the surface.)

The target in a further test is T2, human IL17 (human, UniProt Q16552 24-155).
T2 construct: Used as analyte in solution; also called IL17-A
T2 sequence (looked up): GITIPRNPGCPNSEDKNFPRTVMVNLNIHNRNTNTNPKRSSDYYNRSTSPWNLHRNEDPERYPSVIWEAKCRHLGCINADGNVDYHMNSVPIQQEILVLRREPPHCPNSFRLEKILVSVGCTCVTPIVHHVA
Nature of the test: SPR Biacore T200 25 C, antibody captured via anti-human F(ab')2, human IL17 as analyte, 1:1 Langmuir. The method, then: Around 6000 resonance units (RU) of the capturing system (15 μg/ml goat anti human F(ab′)2; Order Code: 28958325; GE Healthcare Bio-Sciences AB, Schweden) were coupled on a CM5 chip at pH 5.0 by using an amine coupling kit supplied by the GE Healthcare. The sample and system buffer was PBS-T (10 mM phosphate buffered saline including 0.05% Tween 20) pH 7.4. The bispecific antibody was captured by injecting a 50 nM solution for 90 sec at a flow of 10 μl/min. Association was measured by injection human IL17 in various concentrations in solution for 3 min at a flow of 30 μl/min starting with 50 nM in 1:1 serial dilutions. The dissociation phase was monitored for up to 10 min and triggered by switching from the sample solution to running buffer. The surface was regenerated twice by 60 sec wash with a 10 mM glycine pH 2.1 solution at a flow rate of 30 μl/min. Bulk refractive index differences were corrected by subtracting the response obtained from a goat anti human F(ab′)2 surface. Blank injections are also subtracted (=double referencing). For calculation of apparent KD and other kinetic parameters, the Langmuir 1:1 model was used.

The target in test [1] is T3, human VEGFA-121-His (human, UniProt P15692-9 27-147).
T3 construct: Captured on an anti-His antibody surface; P15692 is the canonical VEGF-A entry, and the 121 isoform is one of its splice forms; also called VEFGA-121-His; not shown: His tag
T3 sequence (looked up): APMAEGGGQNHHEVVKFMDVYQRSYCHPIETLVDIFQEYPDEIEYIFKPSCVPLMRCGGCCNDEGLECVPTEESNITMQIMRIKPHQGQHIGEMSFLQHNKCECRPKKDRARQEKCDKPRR
Nature of the test: SPR Biacore T200, VEGFA-121-His captured via anti-His, antibody as analyte, 1:1 Langmuir. As for the experimental part:
(§1) Binding of indicated antibodies to human VEGFA-121 was investigated by surface plasmon resonance using a BIACORE® T200 instrument (GE Healthcare). Around 10000 (RU) of anti His antibody (1 μg/ml anti His antibody; Order Code: 28995056; GE Healthcare Bio-Sciences AB, Sweden) were coupled on a Series S CM5 chip (GE Healthcare BR-1005-30) at pH 5.0 by using an amine coupling kit supplied by the GE Healthcare. HBS-N (10 mM HEPES, 150 mM NaCl pH 7.4, GE Healthcare) was used as running buffer during the immobilization procedure. For the following kinetic characterization, sample and running buffer was PBS-T (10 mM phosphate buffered saline including 0.05% Tween20) at pH 7.4. The flow cell was set to 25° C.—and the sample block set to 12° C.—and primed with running buffer twice prior to kinetic characterization.
(§2) VEFGA-121-His was captured by injecting a 0.5 μg/ml solution for 30 sec at a flow of 5 μl/min. The association was measured by injection of the indicated antibodies in various concentrations in solution for 180 sec at a flow of 30 μl/min starting with 1000 nM in 1:3 serial dilutions. The dissociation phase was monitored for up to 600 sec and triggered by switching from the sample solution to running buffer. The surface was regenerated by 60 sec washing with a Glycine pH 1.5 solution at a flow rate of 30 μl/min. Bulk refractive index differences were corrected by subtracting the response obtained from a anti His antibody surface. Blank injections are also subtracted (=double referencing). For calculation of KD and other kinetic parameters the Langmuir 1:1 model was used.

A further test has as its target T4, human Ang-2-RBD-Fc (human, UniProt O15123 275-496, limits assumed).
T4 construct: domain: RBD; Used as analyte in solution; The KD is called apparent; not shown: Fc part
T4 sequence (looked up): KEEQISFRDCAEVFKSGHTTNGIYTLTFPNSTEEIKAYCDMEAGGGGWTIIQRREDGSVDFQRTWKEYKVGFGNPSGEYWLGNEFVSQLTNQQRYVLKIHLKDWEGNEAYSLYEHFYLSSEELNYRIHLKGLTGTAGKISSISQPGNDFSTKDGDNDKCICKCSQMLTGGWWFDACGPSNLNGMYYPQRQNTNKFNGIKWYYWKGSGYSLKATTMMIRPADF
Nature of the test: SPR Biacore T200, apparent KD, antibody captured via anti-human F(ab')2, Ang2-RBD-Fc as analyte. The method, then:
Binding of indicated antibodies to human Ang-2-RBD-Fc was investigated by surface plasmon resonance using a BIACORE® T200 instrument (GE Healthcare). Around 8000 (RU) of goat anti human F(ab′)₂ (10 μg/ml anti human F(ab)′₂; Order Code: 28958325; GE Healthcare Bio-Sciences AB, Sweden) were coupled on a Series S CM5 chip (GE Healthcare BR-1005-30) at pH 5.0 by using an amine coupling kit supplied by the GE Healthcare. HBS-N (10 mM HEPES, 150 mM NaCl pH 7.4, GE Healthcare) was used as running buffer during the immobilization procedure. For the following kinetic characterization, sample and running buffer was PBS-T (10 mM phosphate buffered saline including 0.05% Tween20) at pH 7.4. The flow cell was set to 25° C.—and the sample block set to 12° C.—and primed with running buffer twice prior to kinetic characterization.
The bispecific antibody was captured by injecting a 5 nM solution for 25 sec at a flow of 5 μl/min. The association was measured by injection of human Ang2-RBD-Fc in various concentrations in solution for 120 sec at a flow of 30 μl/min starting with 100 nM in 1:3 serial dilutions. The dissociation phase was monitored for up to 180 sec and triggered by switching from the sample solution to running buffer. The surface was regenerated by 60 sec washing with a Glycine pH 2.1 solution at a flow rate of 30 μl/min. Bulk refractive index differences were corrected by subtracting the response obtained from a goat anti human F(ab′)₂ surface. Blank injections are also subtracted (=double referencing). For calculation of apparent KD the Langmuir 1:1 model was used.

Test [2] deals with T3, human VEGFA-121-His. Nature of the test: SPR Biacore T200, VEGFA-121-His captured via anti-His, antibody as analyte, 1:1 Langmuir. As for the experimental part: as §1, §2
The source holds these as a separate data set.

Numbering of substitutions follows the chain as printed. Names and notes keep the numbering of the source. Like-named read-outs stand apart in the source and are kept apart here.

B1: TweakIL17_102 (bispecific antibody, human IgG4 S228P, kappa)
heavy 1: DIQMTQSPSSVSASVGDRVTITCQASQNIYSNLAWYQQKPGKAPKLLIYTASYLASGVPSRFSGSGSGTDYTLTISSLQPEDFATYYCQTAYYNSRPDTVAFGGGTKVEIKRTVAAPSVFIFPPSDEQLKSGTASVVCLLNNFYPREAKVQWKVDNALQSGNSQESVTEQDSKDSTYSLSSTLTLSKADYEKHKVYACEVTHQGLSSPVTKSFNRGECPPCPPCPAPEFEGGPSVFLFPPKPKDTLMISRTPEVTCVVVDVSQEDPEVQFNWYVDGVEVHNAKTKPREEQFNSTYRVVSVLTVLHQDWLNGKEYKCKVSNKGLPSSIEKTISKAKGQPREPQVYTLPPCQEEMTKNQVSLWCLVKGFYPSDIAVEWESNGQPENNYKTTPPVLDSDGSFFLYSRLTVDKSRWQEGNVFSCSVMHEALHNHYTQKSLSLSL
light 1: QVQLVQSGAEVKKPGSSVKVSCKASGFDFSTYYMSWVRQAPGQGLEWMGTVYVRQGTTYYASWLNGRVTITADESTSTAYMELSSLRSEDTAVYYCARGGYNYDDAFVIWGQGTLVTVSSASTKGPSVFPLAPCSRSTSESTAALGCLVKDYFPEPVTVSWNSGALTSGVHTFPAVLQSSGLYSLSSVVTVPSSSLGTKTYTCNVDHKPSNTKVDKRVESKYG
heavy 2: EVQLVESGGGLVQPGGSLRLSCAASGFSLDSYGVHWVRQATGKGLEWVSVIWSDGTTTYNSALKSRFTISRENAKNSLYLQMNSLRAGDTAVYYCARDTHYRLYYYAMDYWGQGTTVTVSSASTKGPSVFPLAPCSRSTSESTAALGCLVEDYFPEPVTVSWNSGALTSGVHTFPAVLQSSGLYSLSSVVTVPSSSLGTKTYTCNVDHKPSNTKVDERVESKYGPPCPPCPAPEFEGGPSVFLFPPKPKDTLMISRTPEVTCVVVDVSQEDPEVQFNWYVDGVEVHNAKTKPREEQFNSTYRVVSVLTVLHQDWLNGKEYKCKVSNKGLPSSIEKTISKAKGQPREPQVCTLPPSQEEMTKNQVSLSCAVKGFYPSDIAVEWESNGQPENNYKTTPPVLDSDGSFFLVSRLTVDKSRWQEGNVFSCSVMHEALHNHYTQKSLSLSL
light 2: DIVMTQSPLSLPVTPGEPASISCRSSQSLVHSNGDTYFHWYLQKPGQSPQLLIYKVSNRFSGVPDRFSGSGSGTDFTLKISRVEAEDVGVYYCSQTTHAPFTFGQGTKLEIKRTVAAPSVFIFPPSDKKLKSGTASVVCLLNNFYPREAKVQWKVDNALQSGNSQESVTEQDSKDSTYSLSSTLTLSKADYEKHKVYACEVTHQGLSSPVTKSFNRGEC
notes: also called TweakIL17_0102
As to B1, the Kd is below 0.1 nM with TWEAK and 0.1 nM with human IL17.

B2: TweakIL17_101 (bispecific antibody, human IgG4 S228P, kappa)
heavy 1: B1 heavy 1
light 1: B1 light 1
heavy 2: B1 heavy 2 with E151K, E217K
light 2: B1 light 2 with K128E, K129Q
notes: also called TweakIL17_101 (wt); TweakIL17_0101
B2: the figures for the Kd in the test with TWEAK and with human IL17 were below 0.1 nM and 0.1 nM, respectively.

B3: TweakIL17_0128 (bispecific antibody, human IgG4 S228P, kappa)
heavy 1: B1 heavy 1 with Q38E, Q128E
light 1: B1 light 1 with Q39K
heavy 2: B1 heavy 2 with Q39E
light 2: B1 light 2 with Q43K
notes: also called TweakIL17_128
In the case of B3, the Kd with TWEAK was below 0.1 nM; with human IL17, 0.1 nM.

B4: TweakIL17_103 (bispecific antibody, human IgG4 S228P, kappa)
heavy 1: B1 heavy 1 with Q128E
light 1: B1 light 1
heavy 2: B1 heavy 2
light 2: B1 light 2
notes: also called TweakIL17_0103
For B4, the Kd in the test with TWEAK was below 0.1 nM; with human IL17, 0.1 nM.

B5: Ang2VEGF_467 (bispecific antibody, human IgG1, kappa)
heavy 1: not shown
light 1: EVQLVESGGGLVQPGGSLRLSCAASGYTFTNYGMNWVRQAPGKGLEWVGWINTYTGEPTYAADFKRRFTFSLDTSKSTAYLQMNSLRAEDTAVYYCAKYPHYYGSSHWYFDVWGQGTLVTVSSASTKGPSVFPLAPSSKSTSGGTAALGCLVKDYFPEPVTVSWNSGALTSGVHTFPAVLQSSGLYSLSSVVTVPSSSLGTQTYICNVNHKPSNTKVDKKVEPKSC
heavy 2: not shown
light 2: QPGLTQPPSVSVAPGQTARITCGGNNIGSKSVHWYQQKPGQAPVLVVYDDSDRPSGIPERFSGSNSGNTATLTISRVEAGDEADYYCQVWDSSSDHYVFGTGTKVTVLRTVAAPSVFIFPPSDKKLKSGTASVVCLLNNFYPREAKVQWKVDNALQSGNSQESVTEQDSKDSTYSLSSTLTLSKADYEKHKVYACEVTHQGLSSPVTKSFNRGEC
notes: Wild type CH3 domains, no knob-into-hole
For B5, the Kd was 17 nM with human VEGFA-121-His [1] and 0.5 nM with human Ang-2-RBD-Fc.

B6: Ang2VEGF_469 (bispecific antibody, human IgG1, kappa)
heavy 1: not shown
light 1: B5 light 1 with K153E, K219E
heavy 2: not shown
light 2: B5 light 2 with K124E, K125Q
notes: The charged substitutions are in the crossed (VEGF) arm
With B6, the Kd with human Ang-2-RBD-Fc amounted to 3 nM; in the test with human VEGFA-121-His [2] it was 13 nM.

B7: Ang2VEGF_470 (bispecific antibody, human IgG1, kappa)
heavy 1: not shown
light 1: B5 light 1 with K153E, K219E
heavy 2: not shown
light 2: B5 light 2 with K124E, K125E
notes: The charged substitutions are in the crossed (VEGF) arm, with Q124E added in the Ang2 light chain
Take B7: the values for the Kd with human Ang-2-RBD-Fc and with human VEGFA-121-His [2] were 3 nM and 12 nM, respectively.
